Experimental data from patent publication US20220411531A1 (SUMGEN MAB BEIJING BIOTECH, published 2022).

Key:
[1] = target: T1, MER-His (ACRO Biosystems) (UniProt Q12866 21-499, limits assumed); test: ELISA, MER-His coated at 1 µg/ml, anti-human IgG Fab-HRP, OD450
T1 construct: Bought reagent; not shown: His tag
T1 sequence (looked up): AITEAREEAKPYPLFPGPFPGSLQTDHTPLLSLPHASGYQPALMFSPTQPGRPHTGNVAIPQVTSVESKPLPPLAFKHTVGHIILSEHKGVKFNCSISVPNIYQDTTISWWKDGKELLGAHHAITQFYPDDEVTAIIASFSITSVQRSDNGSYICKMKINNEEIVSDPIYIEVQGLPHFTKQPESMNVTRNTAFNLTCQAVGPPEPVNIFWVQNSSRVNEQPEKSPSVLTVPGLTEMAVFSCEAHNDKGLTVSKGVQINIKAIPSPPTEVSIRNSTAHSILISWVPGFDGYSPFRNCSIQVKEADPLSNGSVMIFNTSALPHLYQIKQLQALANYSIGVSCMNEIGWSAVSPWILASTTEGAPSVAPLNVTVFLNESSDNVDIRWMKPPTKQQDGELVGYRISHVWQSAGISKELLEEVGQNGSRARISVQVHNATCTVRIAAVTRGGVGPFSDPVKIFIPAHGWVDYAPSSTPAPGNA
Description: (§1) AXL, TRYO3, and MER are all members of the TYRO3 receptor tyrosine kinase subfamily. To verify the recognition specificity of the antibodies 6G12M11, 6G12M21, 6G12M31 and 6G12M41, the binding ability of these antibodies to other members of the AXL family is tested by the ELISA method.
(§2) TYRO3-Fc (ACRO Biosystems), MER-His (ACRO Biosystems), and AXL-His (Sino Biological Inc.) each were coated at 1 μg/ml on an ELISA strip, which was held at 4° C. overnight. After the ELISA strips were washed with PBST, 10% fetal bovine serum was added to the ELISA strip, which was blocked for 1 hour at 37° C. Antibodies […], 6G12M21, 6G12M31 and 6G12M41 were added to react at 37° C. for 1 hour. After the ELISA strips were washed with PBST, horseradish peroxidase-labeled goat anti-human IgG Fab secondary antibodies (Goat Anti-Human IgG (Fab′)₂ (HRP), Abcam) were added to react for 30 minutes at 37° C. The ELISA strips were washed 5 times with PBST, and patted and dried on absorbent paper to remove residual droplets as much as possible. 100 μl of TMB (eBioscience, #85-00-420) was added to each well, and the ELISA strips were held for 1.5 min at room temperature (20±5° C.) in the dark. 100 μl of 2N H₂SO₄ stop solution was added to each well to terminate substrate reaction. The OD value was read at 450 nm by a microplate reader to analyze the binding ability of antibodies to the proteins.

[2] = target: T2, TYRO3-Fc (ACRO Biosystems) (UniProt Q06418 41-428, limits assumed); test: ELISA, TYRO3-Fc coated at 1 µg/ml, anti-human IgG Fab-HRP, OD450
T2 construct: Bought reagent; also called TRYO3; not shown: Fc part
T2 sequence (looked up): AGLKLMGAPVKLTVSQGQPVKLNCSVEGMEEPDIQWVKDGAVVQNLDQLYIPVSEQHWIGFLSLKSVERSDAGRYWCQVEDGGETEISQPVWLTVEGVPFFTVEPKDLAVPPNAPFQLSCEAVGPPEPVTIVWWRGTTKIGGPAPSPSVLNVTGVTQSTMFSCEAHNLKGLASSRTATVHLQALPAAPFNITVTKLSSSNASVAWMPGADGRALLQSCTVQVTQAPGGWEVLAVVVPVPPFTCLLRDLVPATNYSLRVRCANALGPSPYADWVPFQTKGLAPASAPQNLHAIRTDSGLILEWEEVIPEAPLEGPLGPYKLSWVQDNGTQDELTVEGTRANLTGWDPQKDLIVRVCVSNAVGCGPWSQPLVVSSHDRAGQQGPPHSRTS
Description: as §1, §2

B1: antibody 6G12M31 (antibody, V domains shown)
VH: QVQLVQSGPGLVKPSQSLSLTCSVTGFSISSGYYWNWIRQFPGQKLEWMGYRSYDGSNNYDPSLKNRISITRDTSKNQFFLKLNSVTSEDTATYYCARGWLLHYTMDYWGQGTTVTVSS
VL: DIVMTQSPSSVSVTLGQSASISCRSSRSLLHSNGFTYLYWYLQKPGQSPQLLIYQMSNLASGVPDRFSGSGSGTDFTLKISRVEAEDVGVYYCGQNLELPLTFGGGTKLEIK
binding result [1]: no binding (tested: about 1 µg/mL)
binding result [2]: no binding (tested: about 1 µg/mL)

B2: antibody 6G12M11 (antibody, human IgG1, kappa, V domains shown)
VH: QVQLVQSGPGLVKPSQSLSLTCAVTGFSISSGYYWNWIRQFPGQKLEWMGYRSYDGSNNYNPSLKNRISITRDTSKNQFFLKLNSVTSEDTATYYCARGWLLHYTMDYWGQGTTVTVSS
VL: EIVMTQSPSSVSVTLGQSASISCRSSRSLLHSNGFTYLYWYLQKPGQSPQLLIYQMSNLASGVPDRFSGSGSGTDFTLKISRVEAEDVGVYYCGQNLELPLTFGGGTKLEIKR
binding result [1]: no binding (tested: about 1 µg/mL)

B3: antibody 6G12M21 (antibody, human IgG1, kappa, V domains shown)
VH: QVQLVQSGPGLVKPSQSLSLTCSVTGFSISSGYYWNWIRQFPGQKLEWMGYRSYDGSNNYNPSLKNRISITRDTSKNQFFLKLNSVTSEDTATYYCARGWLLHYTMDYWGQGTTVTVSS
VL: DIVMTQSPSSVSVTLGQSASISCRSSRSLLHSNGFTYLYWYLQKPGQSPQLLIYQMSNLASGVPDRFSGSGSGTDFTLKISRVEAEDVGVYYCGQNLELPLTFGGGTKLEIKR
binding result [1]: no binding (tested: about 1 µg/mL)
binding result [2]: no binding (tested: about 1 µg/mL)

B4: antibody 6G12M41 (antibody, V domains shown)
VH: QVQLVQSGPGLVKPSQSLSLTCSVTGFSISSGYYWNWIRQFPGQKLEWMGYRSYDGSNNYGPSLKNRISITRDTSKNQFFLKLNSVTSEDTATYYCARGWLLHYTMDYWGQGTTVTVSS
VL: DIVMTQSPSSVSVTLGQSASISCRSSRSLLHSNGFTYLYWYLQKPGQSPQLLIYQMSNLASGVPDRFSGSGSGTDFTLKISRVEAEDVGVYYCGQNLELPLTFGGGTKLEIK
binding result [1]: no binding (tested: about 1 µg/mL)
binding result [2]: no binding (tested: about 1 µg/mL)
